The source of these data is IntAct's records for PubMed 20708156.

First the molecules themselves.
B1: F-box/WD repeat-containing protein 1A (Homo sapiens), Q9Y297 (parent)
chain: MDPAEAVLQEKALKFMCSMPRSLWLGCSSLADSMPSLRCLYNPGTGALTAFQNSSEREDCNNGEPPRKIIPEKNSLRQTYNSCARLCLNQETVCLASTAMKTENCVAKTKLANGTSSMIVPKQRKLSASYEKEKELCVKYFEQWSESDQVEFVEHLISQMCHYQHGHINSYLKPMLQRDFITALPARGLDHIAENILSYLDAKSLCAAELVCKEWYRVTSDGMLWKKLIERMVRTDSLWRGLAERRGWGQYLFKNKPPDGNAPPNSFYRALYPKIIQDIETIESNWRCGRHSLQRIHCRSETSKGVYCLQYDDQKIVSGLRDNTIKIWDKNTLECKRILTGHTGSVLCLQYDERVIITGSSDSTVRVWDVNTGEMLNTLIHHCEAVLHLRFNNGMMVTCSKDRSIAVWDMASPTDITLRRVLVGHRAAVNVVDFDDKYIVSASGDRTIKVWNTSTCEFVRTLNGHKRGIACLQYRDRLVVSGSSDNTIRLWDIECGACLRVLEGHEELVRCIRFDNKRIVSGAYDGKIKVWDLVAALDPRAPAGTLCLRTLVEHSGRVFRLQFDEFQIVSSSHDDTILIWDFLNDPAAQAEPPRSPSRTYTYISR

The test covers variants of B1. Conditions: with mdm2_human MDM2, Q00987.
Chain of mdm2_human MDM2, Q00987 (Q00987 whole entry, looked up): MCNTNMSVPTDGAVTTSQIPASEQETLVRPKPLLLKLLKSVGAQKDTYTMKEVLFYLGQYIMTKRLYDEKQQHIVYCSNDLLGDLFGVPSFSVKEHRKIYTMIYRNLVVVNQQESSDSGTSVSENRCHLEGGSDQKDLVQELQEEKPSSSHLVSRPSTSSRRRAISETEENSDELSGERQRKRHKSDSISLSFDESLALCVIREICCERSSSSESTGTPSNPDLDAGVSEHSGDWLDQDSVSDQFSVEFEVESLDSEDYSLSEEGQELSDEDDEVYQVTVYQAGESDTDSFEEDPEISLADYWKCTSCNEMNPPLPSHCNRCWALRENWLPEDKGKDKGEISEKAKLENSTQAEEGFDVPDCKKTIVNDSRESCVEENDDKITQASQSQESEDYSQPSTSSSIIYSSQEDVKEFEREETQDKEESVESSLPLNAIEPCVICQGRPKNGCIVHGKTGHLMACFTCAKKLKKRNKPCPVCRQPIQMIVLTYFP
As for R475A, the “effect of a mutation on the interaction” value was “decreasing interaction”.
